Experimental data from the supplement of paper PMC11865577.

System: TO-3-N3 (biotin conjugate)
Test: pull-down binding Z-score (relative to library population); higher = stronger binding
Conditions: RNA library: Library-2
Method in brief: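 A heat-folded, dye-end-labelled (Cy5 or Cy3) RNA library (1 μg, phosphate/NaCl/KCl buffer) was exposed for 60 min at 25 °C to streptavidin beads holding 100 pmol of biotin-conjugated small molecule. RNA retained on the beads was eluted in hot SDS and hybridised to a DNA barcode microarray for 20 h at 55.5 °C. Binding scores were Z-scores against the library mean and standard deviation, calculated after subtracting beads alone and taking trimmed means of replicate probes.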

Row | Sequence | pull-down binding Z-score
1 | GCGCAGCCAGAAACUGGCGGCGC [mismatch-AG] | 0.114
2 | GCGCCGCCAGAAACUGGCAGCGC [mismatch-CA] | 0.381
3 | GCGCCGCCAGAAACUGGCCGCGC [mismatch-CC] | -0.796
4 | GCGCCGCCAGAAACUGGCUGCGC [mismatch-CU] | 0.308
5 | GCGCGGCCAGAAACUGGCAGCGC [mismatch-GA] | -0.773
6 | GCGCGGCCAGAAACUGGCGGCGC [mismatch-GG] | -0.0922
7 | GCGCGGCCAGAAACUGGCUGCGC [mismatch-GU] | 0.969
8 | GCGCUACUGCAACGAUACCGAUACAAGCCUCACUCCCUUUCGGAUGGCUUAUUGUUGGCGUUGCACUUCUUGCUGUUUUUCAGAGCGC | -0.679
9 | GCGCUGCCAGAAACUGGCAAAAGCGC [bulge-AAA] | -0.765
10 | GCGCUGCCAGAAACUGGCAAAGCGC [bulge-AA] | -0.184
11 | GCGCUGCCAGAAACUGGCAAGCGC [bulge-A] | -0.289
12 | GCGCUGCCAGAAACUGGCAGCGC [full-UA] | -0.337
13 | GCGCUGCCAGAAACUGGCCAGCGC [bulge-C] | -0.488
14 | GCGCUGCCAGAAACUGGCCCAGCGC [bulge-CC] | -0.161
15 | GCGCUGCCAGAAACUGGCCCCAGCGC [bulge-CCC] | -0.229
16 | GCGCUGCCAGAAACUGGCCGCGC [mismatch-UC] | -0.648
17 | GCGCUGCCAGAAACUGGCGAGCGC [bulge-G] | -0.426
18 | GCGCUGCCAGAAACUGGCGGAGCGC [bulge-GG] | -0.714
19 | GCGCUGCCAGAAACUGGCGGCGC [mismatch-UG] | 0.983
20 | GCGCUGCCAGAAACUGGCGGGAGCGC [bulge-GGG] | 0.781
21 | GCGCUGCCAGAAACUGGCUAAGCGC [bulge-UA] | -0.669
22 | GCGCUGCCAGAAACUGGCUAGCGC [bulge-U] | 0.183
23 | GCGCUGCCAGAAACUGGCUCAGCGC [bulge-UC] | -0.319
24 | GCGCUGCCAGAAACUGGCUGAGCGC [bulge-UG] | 0.553

Row | Sequence | pull-down binding Z-score
25 | GCGCUGCCAGAAACUGGCUGCGC [mismatch-UU] | 0.141
26 | GCGCUGCCAGAAACUGGCUUAAGCGC [bulge-UUA] | 0.176
27 | GCGCUGCCAGAAACUGGCUUAGCGC [bulge-UU] | 0.63
28 | GCGCUGCCAGAAACUGGCUUCAGCGC [bulge-UUC] | -0.611
29 | GCGCUGCCAGAAACUGGCUUGAGCGC [bulge-UUG] | 1.04
30 | GCGCUGCCAGAAACUGGCUUUAGCGC [bulge-UUU] | -0.00635
31 | GCGCUUCAGCGUUCUUCGGAAUGUCGCGC | -0.429
32 | GCGCUUUAGGUCUACACGGGCCGAAGCUAACGCGUUAAGCGC [3-way model-5_mrRNA] | 0.146
33 | GCUAAAGAUACUACUGAAGCCUUUGAAAAAAUGGUUUCACUACUUUCUGUUUUGC [SHAPE_invitro_SARS-CoV-2_Motif_217] | 0.0938
34 | GCUAAAUUGUUACAUAAACCUAUUGUUUGGCAUGUUAACAAUGC [SHAPE_invitro_SARS-CoV-2_Motif_124] | -0.783
35 | GCUAAAUUGUUACAUAAACCUAUUGUUUGGCAUGUUAACAAUGCAACUAAUAAAGCCACGUAUAAACCAAAUACCUGGUGUAUACGUUGUCUUUGGAGC | -1.1
36 | GCUAACAAACAUGCUGAUUUUGACACAUGGUUUAGCCAGCGUGGUGGUAGU | -0.205
37 | GCUAGAAAAUCAGC [SHAPE_invivo_SARS-CoV-2_Motif_531] | -0.186
38 | GCUAGCUCUUGGAGGUUCCGUGGCUAUAAAGAUAACAGAACAUUCUUGGAAUGCUGAUCUUUAUAAGCUCAUGGGACACUUCGCAUGGUGGACAGC | 0.837
39 | GCUAGUCUUAAUGGAGUCACAUUAAUUGGAGAAGC | 0.378
40 | GCUAGUGGGGGACAACCAAUCACUAAUUGUGUUAAGAUGUUGUGUACACACACUGGU | 0.789
41 | GCUAUAUGAUGC [IAV_invivo_PA_3_Motif_14+IAV_invivo_PA_3_Motif_14] | -0.0014
42 | GCUAUCUAACCUUAACUUGCCUGGUUGUGAUGGU [SHAPE_invivo_SARS-CoV-2_Motif_361] | 0.68
43 | GCUAUGCAAAUGGC | -0.537
44 | GCUAUGGGUAUUAUUGCUAUGUCUGCUUUUGCAAUGAUGUUUGUCAAACAUAAGCAUGCAUUUCUCUGUUUGUUUUUGUUACCUUCUCUUGCCACUGUAGC | -0.966
45 | GCUCACCGUGCCCAGUGAGC [IAV_invivo_M1_M2_7_Motif_5+IAV_invivo_M1_M2_7_Motif_5] | 0.297
46 | GCUCAGGAUGGUAAUGCUGCUAUCAGC | -0.137
47 | GCUCUACAAGAUGCUUAUUACAGAGC | 1.83
48 | GCUCUCUGAUGC [IAV_invivo_NP_5_Motif_10+IAV_invivo_NP_5_Motif_10] | -0.607

Row | Sequence | pull-down binding Z-score
49 | GCUGAAAUUGUUGACACUGUGAGUGCUUUGGUUUAUGAUAAUAAGCUUAAAGCACAUAAAGACAAAUCAGC | -0.842
50 | GCUGACACUACUGAUGCUGUCCGUGAUCCACAGACACUUGAGAUUCUUGACAUUACACCAUGUUCUUUUGGUGGUGUCAGU [SHAPE_invivo_SARS-CoV-2_Multi_58_ComplexLevel_1] | -0.0653
51 | GCUGAGGCUUCUAAGAAGCCUCGGC | -0.572
52 | GCUGAGUUGCCAUUCAGC [IAV_invivo_NA_6_Motif_18+IAV_invivo_NA_6_Motif_18] | -0.302
53 | GCUGCACAAAAAGC [IAV_invivo_NP_5_Motif_13+IAV_invivo_NP_5_Motif_13] | -0.79
54 | GCUGGCCUUGAAGCCCCUUUUCUCUAUCUUUAUGCUUUAGUCUACUUCUUGCAGAGUAUAAACUUUGUAAGAAUAAUAAUGAGGCUUUGGCUUUGC | -0.79
55 | GCUGGUAAUGUUCAACUCAGGGUUAUUGGACAUUCUAUGC [SHAPE_invivo_SARS-CoV-2_Motif_203] | -0.362
56 | GCUGGUCUGACUCACAUGAUGAUCUGGC [IAV_invivo_NP_5_Motif_8+IAV_invivo_NP_5_Motif_8] | -0.624
57 | GCUGGUGCACUUGCCAGU [IAV_invivo_M1_M2_7_Motif_8+IAV_invivo_M1_M2_7_Motif_8] | -0.522
58 | GCUGUAGUGUUACUAAUCCUUAUGACAGC | -0.113
59 | GCUGUGAGUUGGAUACUUACCUG [U1snRNP5ss-13] | 0.0032
60 | GCUGUUGGUACCAAUUUACCUUUACAGC [SHAPE_invitro_SARS-CoV-2_Motif_335] | 0.416
61 | GCUGUUUAAUAGGGGCUGAACAUGUCAACAACUCAUAUGAGUGUGACAUACCCAUUGGUGCAGGUAUAUGCGCUAGUUAUCAGACUCAGACUAAUUCUCCUCGGC | -0.351
62 | GCUUCAAGAGAGC | -0.0727
63 | GCUUCCACAAGUGCUUUUGUGGAAACUGUGAAAGGUUUGGAUUAUAAAGCAUUCAAACAAAUUGUUGAAUCCUGUGGUAAUUUUAAAGUUACAAAAGGAAAAGC | -0.475
64 | GCUUCCACUGAGAAGU [DMSMaPseq_invitro_SARS-CoV-2_Motif_384] | -0.836
65 | GCUUCUAGAAAGUGAACUCGUAAUCGGAGCUGUGAUCCUUCGUGGACAUCUUCGUAUUGCUGGACACCAUCUAGGACGC | -0.191
66 | GCUUGAAGUGGAGC [IAV_invivo_NS1_NEP_8_Motif_14+IAV_invivo_NS1_NEP_8_Motif_14] | -0.454
67 | GCUUGCAUACGUAGACCAUUCUUAUGUUGUAAAUGCUGUUACGACCAUGUCAUAUCAACAUCACAUAAAUUAGUCUUGUCUGUUAAUCCGUAUGUUUGCAAUGC [DMSMaPseq_invitro_SARS-CoV-2_Motif_294] | -0.654
68 | GCUUGGAGAAAAGC [SHAPE_invitro_SARS-CoV-2_Motif_326] | -0.536
69 | GCUUGUCACACCGUUUCUAUAGAUUAGCUAAUGAGUGUGCUCAAGU | -0.601
70 | GCUUUAGUCUACUUCUUGCAGAGUAUAAACUUUGUAAGAAUAAUAAUGAGGC [SHAPE_invitro_SARS-CoV-2_Motif_467] | 0.0529
71 | GCUUUCUUUGGC [IAV_invivo_NS1_NEP_8_Motif_2+IAV_invivo_NS1_NEP_8_Motif_2] | -0.0308
72 | GCUUUGAUAUGGAACGUUAAAGAUUUCAUGUCAUUGU | -0.179
